Experimental data as given in patent US20190338035A1.

How the values were obtained:
[1] = target: WT H3.1 26-35 peptide/HLA-A*02:01 complex on T2 cells (human); assay: flow cytometry, BB7.2 staining of T2 cells
[2] = target: HLA-A*02:01 on T2 cells without peptide loading (human); assay: flow cytometry, BB7.2 staining of T2 cells
[3] = target: control peptide mixture P20/HLA-A*02:01 complexes on T2 cells (human); assay: flow cytometry, BB7.2 staining of T2 cells
[4] = target: WT H3.3 26-35 peptide/HLA-A*02:01 complex on T2 cells (human); assay: flow cytometry, BB7.2 staining of T2 cells
[5] = target: mutant histone K27M-H3.1 26-35 peptide/HLA-A*02:01 complex on T2 cells (human); assay: flow cytometry, BB7.2 staining of T2 cells
[6] = target: mutant histone K27M-H3.3 26-35 peptide/HLA-A*02:01 complex on T2 cells (human); assay: flow cytometry, BB7.2 staining of T2 cells
[7] = target: WT H3.1 26-35 peptide/HLA-A*02:01 complex on T2 cells (human); assay: flow cytometry on T2 cells, secondary antibody only, no phage (background control)
[8] = target: HLA-A*02:01 on T2 cells without peptide loading (human); assay: as above
[9] = target: control peptide mixture P20/HLA-A*02:01 complexes on T2 cells (human); assay: as above
[10] = target: WT H3.3 26-35 peptide/HLA-A*02:01 complex on T2 cells (human); assay: as above
[11] = target: mutant histone K27M-H3.1 26-35 peptide/HLA-A*02:01 complex on T2 cells (human); assay: as above
[12] = target: mutant histone K27M-H3.3 26-35 peptide/HLA-A*02:01 complex on T2 cells (human); assay: as above
[13] = target: WT H3.1 26-35 peptide/HLA-A*02:01 complex on T2 cells (human); assay: flow cytometry on T2 cells, anti-M13 + PE anti-mouse IgG, no phage (background control)
[14] = target: HLA-A*02:01 on T2 cells without peptide loading (human); assay: as above
[15] = target: control peptide mixture P20/HLA-A*02:01 complexes on T2 cells (human); assay: as above
[16] = target: WT H3.3 26-35 peptide/HLA-A*02:01 complex on T2 cells (human); assay: as above
[17] = target: mutant histone K27M-H3.1 26-35 peptide/HLA-A*02:01 complex on T2 cells (human); assay: as above
[18] = target: mutant histone K27M-H3.3 26-35 peptide/HLA-A*02:01 complex on T2 cells (human); assay: as above
[19] = target: WT H3.1 26-35 peptide/HLA-A*02:01 complex on T2 cells (human); assay: flow cytometry, phage on T2 cells, anti-M13 + PE anti-mouse IgG
[20] = target: HLA-A*02:01 on T2 cells without peptide loading (human); assay: as above
[21] = target: control peptide mixture P20/HLA-A*02:01 complexes on T2 cells (human); assay: as above
[22] = target: WT H3.3 26-35 peptide/HLA-A*02:01 complex on T2 cells (human); assay: as above
[23] = target: mutant histone K27M-H3.1 26-35 peptide/HLA-A*02:01 complex on T2 cells (human); assay: as above
[24] = target: mutant histone K27M-H3.3 26-35 peptide/HLA-A*02:01 complex on T2 cells (human); assay: as above

Q: For BB7.2 (antibody), which Median MFI (PE-A) [1] is on record?
A: 8700 MFI

Q: And the Median MFI (PE-A) [2]?
A: 3600 MFI

Q: And the Median MFI (PE-A) [3]?
A: 11300 MFI

Q: What about the Median MFI (PE-A) [4] of the same substance?
A: 8650 MFI

Q: And the Median MFI (PE-A) [5]?
A: 9530 MFI

Q: What about the Median MFI (PE-A) [6] of the same substance?
A: 9650 MFI

Q: With “R-PE conjugated horse anti-mouse IgG (antibody)” as the substance, how does the Median MFI (PE-A) [7] read?
A: 83 MFI

Q: What about the Median MFI (PE-A) [8] of the same substance?
A: 82 MFI

Q: And the Median MFI (PE-A) [9]?
A: 82 MFI

Q: And the Median MFI (PE-A) [10]?
A: 83 MFI

Q: And the Median MFI (PE-A) [11]?
A: 85 MFI

Q: And the Median MFI (PE-A) [12]?
A: 83 MFI

Q: Which Median MFI (PE-A) [13] does the source give for mouse anti-M13 mAb (antibody) here?
A: 86 MFI

Q: And the Median MFI (PE-A) [14]?
A: 80 MFI

Q: And the Median MFI (PE-A) [15]?
A: 82 MFI

Q: And the Median MFI (PE-A) [16]?
A: 83 MFI

Q: What about the Median MFI (PE-A) [17] of the same substance?
A: 85 MFI

Q: And the Median MFI (PE-A) [18]?
A: 83 MFI

Q: Which results are given for negative control phage?
A: Median MFI (PE-A) [19]: 131 MFI; Median MFI (PE-A) [20]: 122 MFI; Median MFI (PE-A) [21]: 124 MFI; Median MFI (PE-A) [22]: 128 MFI; Median MFI (PE-A) [23]: 130 MFI; Median MFI (PE-A) [24]: 133 MFI
